Measured values: patent publication US20030130484A1, “Inhibitors and disassemblers of fibrillogenesis” (priority 2001, published 2003)

Target: human Aβ1-40 peptide (human)
Test: cell-based or functional assay

Sequence of human Aβ1-40 peptide (human) (peptide, as listed by the source): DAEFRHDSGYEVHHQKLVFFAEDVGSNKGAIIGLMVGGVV

IC50 of inhibition of Aβ40 fibrillogenesis (inhibitor:Aβ ratio) | Inhibition of Fibrillogenesis IC50 (thioflavin fluorescence) (inhibitor:Aβ40 molar ratio) | Inhibition of Fibrillogenesis ICmax | Inhibition of Fibrilogenesis IC50 (µM) | Inhibition of Fibrilogenesis ICmax (%) | percent inhibition of fibrillogenesis at concentrations at which Aβ16-22m inhibited completely | Substance
10 | 8.4 | 100% | 8.4 µM | 100% | – | Ac-Aβ16-22 (Peptide VI)
– | – | – | 0.3 µM | 100% | – | Anth-Aβ16-20 (peptide)
– | 1.1 | 23% | 1.1 µM | 23% | 10 to 20% | Aβ16-22 (peptide)
